Measurements as given in the DeepSol protein solubility set.

Assay: soluble on expression in E. coli; label from the status in PepcDB or PDB records
For “MTIGQVNGRARIKSECGKDQKCMPLEDKWLLVPAFLKVRGLVKQHLVSFDHFVQEEIRSIMLSNQKITSDANPNFYLKYLDIRIGKPSSEEGLNMTHDKITPQECRLRDMTYSAPISVDIEYTRGNQRVFKKDLIIGRMPIMLRSSKCILRDLAEEELARVQECPYDPGGYFVVKGSEKVILIQEQLSKNRIMVGRNSSKELQCEVLSSTSERKSKTYVTMKKGKYSVRHNQLTDDVPVSIIFKAMGVESDFDIVSTIGHEEKYVSAFAQTLEESINAGVYTQQQALAYVTSKVKARKFTPFGSLPGTSVSVLTPPKEHEAVDFLSNSMITHIACPDGNFKMKAIYLGLMTRRLIQTELGENGLDDRDFYGNKRLELAGSLLSLLFEDVFKRFNSELKRIADNALMKTMAAPLDIVKHMRQDMITNTIVNAMSTGNWIIKRFRMERLGVTQVLSRLSYISALGMMTRINSTFEKTRKVSGPRSLQPSQWGMLCPSDTPEGEACGLVKNLALISHITTDSDEKPVLRLLLNSGVEDLHNVHFSHVNKPENTLIFLNGVLIGTAVDPERVVKAVRDLRRSGLLSEFVSVSRSLTNRSVFISSDGGRLCRPYIIVKNGTPMLTQAHVQELKEGKMIFEDFVDDGIVEYLDVNEMNDALIAVYGREIGPETTHLEIEPFTLLGVCAGLIPYPHHNQSPRNTYQCAMGKQAMGTIAYNQQKRIDSIMYLLCYPQRPLVKSKTIELTNFEKLPAGANGIIAVMSYSGYDIEDALVLNKASLDRGYGRCLVYKHVKGTAKKYPNQTFDRLLGPALDPNTRKPIFKHKNLDQEGIVFAGARIMPKQTIINKHMPVVSGESGPGASASANTIGIAGRQVDYKDVSITYKTPTPSYAERVLLTYNEDEAHLFKVLLRQTRRPELGDKFSSRHGQKGVCGLIAQQEDMPFNDLGMVPDMIMNPHGYPSRMTVGKLMELLSGKAGVVNGTYHYGTAFGGDQVKDVCEELAACGYNYMGKDMLTSGITGQPLSAYIYFGPIYYQKLKHMVLDKMHARARGPRAALTRQPTEGRSREGGLRLGEMERDCLIAYGASMLLIERLMVSSDEFKVDVCTGCGVIGSKGWCQKCRSSKSMANIKIPYACKLLFQELQSMNIVPRLDLARYTE”, the “soluble on expression in E. coli” value was “not soluble”. For “MGSDKIHHHHHHAQTPQDSVRFIGYLPVRHTDPTKWITRYQSEIDRYQTENQMLKDTSCDVLFLGSSSINLWDNIYRDMAPLKILRRSYGGAALRDMLYNYDVIARGYHPRSIVIYVENDLAGTPEDLTVGETFDFFRLLTNRLQRDYPDIPIFILSYKPSLARKEMIPKHEIINALLQEYASKRGGLTYIDVASCLYDNNGKLRKDIFKQDGLHMNQNGYDLWTAILKPKILESIR”, the “soluble on expression in E. coli” value was “not soluble”. With “MDSQAQVLILLLLWVSGTCGDIVMSQSPSSLAVSAGEKVTMSCKSSQSLLNSRTRKNYLAWYQQKPGQSPKLLIYWASTRESGVPDRFTGSGSGTDFTLTISSVQAEDLAVYYCKQSYNLYTFGGGTKLEIKRADAAPTVSIFPPSSEQLTSGGASVVCFLNNFYPKDINVKWKIDGSERQNGVLNSWTDQDSKDSTYSMSSTLTLTKDEYERHNSYTCEATHKTSTSPIVKSFNRNEC” the “soluble on expression in E. coli” value was “soluble”. For “FYDPLVFPSDEFDASISQVNEKINQSLAFIRKSDELLHNVNAG”, the “soluble on expression in E. coli” value was “soluble”. In the case of “MGSDKIHHHHHHMENQPNTRSMIFTLYGDYIRHYGNVIWIGSLIRFLQEFGHNEQSVRAAVSRMSKQGWIQSEKKGNKSYYSLTDQGRKRMAEAAQRIYKLEAPSWDEKWRLLIYSIPEEKRSLRDELRKELVWSGFGLLANSCWITPNPLEEQVETLIEKYEISPYVHFFCADYRGMGEPKTLIEKCWDLDEINEKYLAFIQKYSQKYVIDKNKIEKGEMSDGACFVERTLLVHEYRKFLFIDPGLPQELLPEKWLGDSAAHLFADYYRTLAEPARRFFESVFAEGNSLVKKDKEYNFLDHPFMSESQS”, the “soluble on expression in E. coli” value is reported as “not soluble”. For “MLRHSRHNAVFILDTAGIIMGISEGAQRSYGYTHKDVHGKYFDMLFTEESRKQQKPELELAKVLQYGTAADYNEFVHKDGRHIWTEGESLLITDVWGDSFIIKNVHSLDKEKEEQRNLQQQNEKLLRINNDLDTFVYTASHDLKNPVSNIESLVSIMQYELKHGADAEAVEPVMSRITEALNRFKTTLNELTEISRIDAPVDTDEMYVSFDSILQEVMYDVQDLVDSTEASIQSDFSAATMVRFSKKNVRSILFNLLSNALKYRSPERKPEIYIETKPAGEYILLSVRDNGIGIEPAQHKKVFQFFKRLHTHVQGTGVGMGIVKKIMDNTGGKITLESIPGKGSAFTVHFKQ”, the “soluble on expression in E. coli” value was “not soluble”.
